Test results from the supplement of paper PMC7125110.
± gives the standard error. For part of these data: Fewer inactive variants are shown than the library holds.

B1: glmS ribozyme (parent)
chain: AUAAAAGCGCCAGAACUACAGAAAUGUAGUUGACGAGGAGGAGGUUUAUCGAAUUUUCGGCGGAUGCCUCCAAA

Columns and labels:
Conditions in all cases: with glucosamine-6-phosphate
glucosamine-6-phosphate [1] = variants of: B1; experiment: kcat; higher = faster cleavage; RNA array
In short: (§1)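 The measurements used barcoded ribozyme variants on sequenced MiSeq chips, transcribed in situ by E. coli RNA polymerase and tracked at 37 °C with a hybridised Cy3 probe. Glucosamine-6-phosphate, 40 μM to 10 mM in HEPES/KCl/Mg(OAc)2 buffer, was flowed in while tiles were imaged over ~14 h. Baseline-normalised signals, also normalised to non-cleaving reference variants, gave per-tile medians that were fit to one- or two-exponential decays for kobs. kcat and KM resulted from weighted Michaelis–Menten fits across concentrations.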

glucosamine-6-phosphate [2] = variants of: B1; experiment: self-cleavage kobs at 40 uM GlcN6P; higher = faster cleavage; RNA array
In short: as §1

glucosamine-6-phosphate [3] = variants of: B1; experiment: self-cleavage kobs at 160 uM GlcN6P; higher = faster cleavage; RNA array
In short: as §1

glucosamine-6-phosphate [4] = variants of: B1; experiment: self-cleavage kobs at 640 uM GlcN6P; higher = faster cleavage; RNA array
In short: as §1

glucosamine-6-phosphate [5] = variants of: B1; experiment: self-cleavage kobs at 2500 uM GlcN6P; higher = faster cleavage; RNA array
In short: as §1

glucosamine-6-phosphate [6] = variants of: B1; experiment: self-cleavage kobs at 10000 uM GlcN6P; higher = faster cleavage; RNA array
In short: as §1

glucosamine-6-phosphate [7] = variants of: B1; experiment: KM; higher = weaker cofactor use; RNA array
In short: as §1

Row | Variant | kcat (glucosamine-6-phosphate [1]) | self-cleavage kobs at 40 uM GlcN6P (glucosamine-6-phosphate [2]) | self-cleavage kobs at 160 uM GlcN6P (glucosamine-6-phosphate [3]) | self-cleavage kobs at 640 uM GlcN6P (glucosamine-6-phosphate [4]) | self-cleavage kobs at 2500 uM GlcN6P (glucosamine-6-phosphate [5]) | self-cleavage kobs at 10000 uM GlcN6P (glucosamine-6-phosphate [6]) | KM (glucosamine-6-phosphate [7])
1 | G29A U30A | 0.00133 ± 0.00052 s⁻¹ | 2.98e-05 ± 1.5e-05 s⁻¹ | 5.7e-05 ± 2e-05 s⁻¹ | 0.000149 ± 2.4e-05 s⁻¹ | 0.000752 ± 0.00014 s⁻¹ | 0.000862 ± 0.00016 s⁻¹ | –
2 | A12C A15G | 0.016 ± 0.0031 s⁻¹ | 0.000302 ± 3.5e-05 s⁻¹ | 0.000883 ± 0.00014 s⁻¹ | 0.00332 ± 0.0006 s⁻¹ | 0.00626 ± 0.0015 s⁻¹ | 0.0142 ± 0.0018 s⁻¹ | 2400 ± 600 µM
3 | G63U | < 1e-05 s⁻¹ | < 1e-05 s⁻¹ | < 1e-05 s⁻¹ | – | < 1e-05 s⁻¹ | < 1e-05 s⁻¹ | –
4 | G41A A53U | 0.000693 ± 8.4e-05 s⁻¹ | 5.42e-05 ± 9e-06 s⁻¹ | 0.00012 ± 3.1e-05 s⁻¹ | 0.000358 ± 5.8e-05 s⁻¹ | 0.00063 ± 0.00014 s⁻¹ | 0.000656 ± 0.0001 s⁻¹ | 562 ± 120 µM
5 | A39C U46G | 0.000897 ± 0.00012 s⁻¹ | – | 6.87e-05 ± 9.7e-06 s⁻¹ | 0.000224 ± 2e-05 s⁻¹ | 0.00042 ± 6.2e-05 s⁻¹ | 0.000829 ± 0.0001 s⁻¹ | 2000 ± 420 µM
6 | A39G U54A | 0.0133 ± 0.0029 s⁻¹ | 0.00173 ± 0.00037 s⁻¹ | – | 0.00823 ± 0.0019 s⁻¹ | – | 0.018 ± 0.0076 s⁻¹ | 282 ± 100 µM
7 | A6C U55G | 0.00017 ± 7.1e-06 s⁻¹ | – | – | – | 4.01e-05 ± 9.6e-06 s⁻¹ | 9.3e-05 ± 1.1e-05 s⁻¹ | 8250 ± 640 µM
8 | U45A U69A | 0.000153 ± 3.8e-05 s⁻¹ | 5.69e-05 ± 1.3e-05 s⁻¹ | – | 9.56e-05 ± 2.4e-05 s⁻¹ | 0.000129 ± 3.7e-05 s⁻¹ | 0.000167 ± 2.1e-05 s⁻¹ | –
9 | A6C U65A | 1.38e-05 ± 2.5e-07 s⁻¹ | – | – | – | – | – | 3180 ± 190 µM
10 | A6U C50G A52U C61G C68U | 3.87e-05 ± 1.1e-05 s⁻¹ | – | – | – | – | 4.51e-05 ± 1.6e-05 s⁻¹ | –
11 | A15U G59A | 1.53e-05 ± 4.8e-06 s⁻¹ | < 1e-05 s⁻¹ | – | – | – | – | –
12 | G32A G37A | 0.00051 ± 0.00011 s⁻¹ | – | – | – | 4.62e-05 ± 1e-05 s⁻¹ | 0.000143 ± 1.8e-05 s⁻¹ | –
13 | A15C U65C | 7.01e-05 ± 1.5e-05 s⁻¹ | – | – | – | 9.83e-05 ± 2.2e-05 s⁻¹ | 6.14e-05 ± 1e-05 s⁻¹ | –
14 | G32A G66U | 0.000161 ± 4.6e-05 s⁻¹ | – | – | 4.96e-05 ± 1.7e-05 s⁻¹ | 5.52e-05 ± 1.1e-05 s⁻¹ | 0.000118 ± 1.6e-05 s⁻¹ | –
15 | G32A G66A | 0.00312 ± 0.0006 s⁻¹ | – | – | 0.000269 ± 6.9e-05 s⁻¹ | 0.000911 ± 0.00018 s⁻¹ | 0.0019 ± 0.00044 s⁻¹ | 6290 ± 1700 µM
16 | C16A C50A | < 1e-05 s⁻¹ | – | – | – | – | – | –
17 | U54A U65G | 0.00357 ± 0.0014 s⁻¹ | 5.78e-05 ± 9.8e-06 s⁻¹ | 0.000211 ± 3.9e-05 s⁻¹ | 0.000927 ± 0.00015 s⁻¹ | 0.001 ± 0.00025 s⁻¹ | 0.00358 ± 0.00043 s⁻¹ | –

Row | Variant | kcat (glucosamine-6-phosphate [1]) | self-cleavage kobs at 40 uM GlcN6P (glucosamine-6-phosphate [2]) | self-cleavage kobs at 160 uM GlcN6P (glucosamine-6-phosphate [3]) | self-cleavage kobs at 640 uM GlcN6P (glucosamine-6-phosphate [4]) | self-cleavage kobs at 2500 uM GlcN6P (glucosamine-6-phosphate [5]) | self-cleavage kobs at 10000 uM GlcN6P (glucosamine-6-phosphate [6]) | KM (glucosamine-6-phosphate [7])
18 | A48C C67U | 0.000136 ± 1.3e-05 s⁻¹ | – | – | – | 5.35e-05 ± 1.4e-05 s⁻¹ | 9.42e-05 ± 1.2e-05 s⁻¹ | 4380 ± 1100 µM
19 | C58A C67U | 0.000215 ± 1.7e-05 s⁻¹ | – | – | 6.4e-05 ± 1e-05 s⁻¹ | 0.000161 ± 2e-05 s⁻¹ | 0.000182 ± 1.7e-05 s⁻¹ | 1370 ± 290 µM
20 | G37U C50U C70U | 3.99e-05 ± 1.4e-05 s⁻¹ | – | – | – | – | – | –
21 | G7U U55A | < 1e-05 s⁻¹ | – | < 1e-05 s⁻¹ | < 1e-05 s⁻¹ | < 1e-05 s⁻¹ | – | –
22 | G13U A42G | 0.00137 ± 0.00022 s⁻¹ | 2.35e-05 ± 1.1e-05 s⁻¹ | 0.000152 ± 3.8e-05 s⁻¹ | – | 0.00082 ± 0.00017 s⁻¹ | 0.00117 ± 0.00027 s⁻¹ | 1680 ± 460 µM
23 | A53U G60A C70A | 1.78e-05 ± 4.4e-06 s⁻¹ | – | – | – | – | – | –
24 | U57A G66A | 0.000171 ± 2.8e-05 s⁻¹ | – | – | – | 6.97e-05 ± 2.3e-05 s⁻¹ | 0.00012 ± 3.2e-05 s⁻¹ | 4040 ± 1400 µM
25 | U45G U54C | 0.0089 ± 0.00053 s⁻¹ | 0.000233 ± 5.4e-05 s⁻¹ | 0.000851 ± 0.00024 s⁻¹ | 0.00308 ± 0.00078 s⁻¹ | 0.00519 ± 0.00085 s⁻¹ | 0.00798 ± 0.001 s⁻¹ | 1480 ± 160 µM
26 | G13U C50G A52C | 1.8e-05 ± 3e-06 s⁻¹ | – | – | – | – | – | –
27 | A64G C70G | 5.51e-05 ± 2.1e-06 s⁻¹ | < 1e-05 s⁻¹ | – | 4.33e-05 ± 1.6e-05 s⁻¹ | – | 5.41e-05 ± 8.6e-06 s⁻¹ | 224 ± 79 µM
28 | A15C U54A | 0.00654 ± 0.0017 s⁻¹ | 0.000164 ± 2.4e-05 s⁻¹ | 0.000559 ± 0.00011 s⁻¹ | 0.0012 ± 0.00025 s⁻¹ | 0.00329 ± 0.00066 s⁻¹ | 0.00638 ± 0.00097 s⁻¹ | 1930 ± 730 µM
29 | U31C U49G | 7.25e-05 ± 2.8e-06 s⁻¹ | – | – | 2.25e-05 ± 9.3e-06 s⁻¹ | 4.27e-05 ± 7.7e-06 s⁻¹ | 6.33e-05 ± 9.1e-06 s⁻¹ | 1610 ± 200 µM
30 | A42G C70U | 0.0228 ± 0.01 s⁻¹ | 0.000696 ± 0.0001 s⁻¹ | 0.00157 ± 0.00029 s⁻¹ | 0.00975 ± 0.0019 s⁻¹ | 0.0261 ± 0.01 s⁻¹ | 0.0178 ± 0.0045 s⁻¹ | –
31 | G32U A52G | 8.92e-05 ± 4.7e-06 s⁻¹ | – | – | – | 3.86e-05 ± 7.8e-06 s⁻¹ | 6.6e-05 ± 5.2e-06 s⁻¹ | 3490 ± 570 µM
32 | A15U U55G | 0.00423 ± 0.0019 s⁻¹ | 0.000109 ± 1.3e-05 s⁻¹ | 0.000152 ± 4.6e-05 s⁻¹ | 0.00134 ± 0.00029 s⁻¹ | 0.00204 ± 0.00063 s⁻¹ | 0.00356 ± 0.00054 s⁻¹ | –
33 | G13C | 0.000191 ± 5.2e-06 s⁻¹ | – | – | 2.7e-05 ± 1.3e-06 s⁻¹ | 6.98e-05 ± 1.4e-06 s⁻¹ | 0.000135 ± 1.8e-06 s⁻¹ | 4220 ± 250 µM
